Reference: patent US20090005257A1

Columns and labels:
protein A [1] = target: protein A (UniProt P38507); experiment: phage ELISA on protein A, heated 80 C against unheated, three data points
protein A [2] = target: protein A (UniProt P38507); experiment: phage ELISA screen on protein A, heated 80 C against unheated (Section 4); mean of clones with this mutation

Chain of DP47 F100nV (VH): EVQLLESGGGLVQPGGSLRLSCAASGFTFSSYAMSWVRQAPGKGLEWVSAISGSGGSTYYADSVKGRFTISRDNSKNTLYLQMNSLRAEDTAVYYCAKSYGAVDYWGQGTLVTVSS

Substance	Refoldability on phage (protein A binding retained after heating) (protein A [1])	mean % refolding (pA-ELISA) (protein A [2])
DP47 F100nV/Y102S	2%	
DP47-G54P		28%
DP47-F27C		56%
DP47 F100nV	2%	
